Measurements from the supplement of paper PMC9732359.
± gives the uncertainty stated by the source.

Test: protein stability index of a GFP-peptide fusion (yeast GPS) (PSI 1-4); higher = more stable; sorted into four equal gates, so the index is relative within each strain
How it was run: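 Tiled 17-residue peptides from yeast proteins were fused downstream of GFP on a plasmid that also expresses Cherry, and the pooled library was carried in yeast. Mid-log cultures grown in leucine-free medium were sorted into four equal gates by GFP/Cherry fluorescence ratio. Plasmids from each gate were PCR-amplified and Illumina-sequenced, and reads were assigned to strains by barcodes. Each peptide's protein stability index is the sum, over gates, of the gate's read frequency multiplied by its gate number.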

KSSSNRSCVSNSNENGT [RPN4]
protein stability index (doa10∆): 3.02 ± 0.06
protein stability index (pdr5∆): 3.08 ± 0.07
protein stability index (san1∆): 3.01 ± 0.05
protein stability index (ubr1∆): 3.03 ± 0.048

KTAEQVAAERAARKAAN [RPL7A]
protein stability index (doa10∆): 2.94 ± 0.091
protein stability index (pdr5∆): 2.92 ± 0.06
protein stability index (san1∆): 2.78 ± 0.062
protein stability index (ubr1∆): 2.56 ± 0.052

KTAFKPHELTESVLPAA [QCR2]
protein stability index (doa10∆): 2.36 ± 0.049
protein stability index (pdr5∆): 2.69 ± 0.051
protein stability index (san1∆): 2.62 ± 0.057
protein stability index (ubr1∆): 2.8 ± 0.038

KTANSSSDAFEKLKVNM [YIL149C/MLP2]
protein stability index (doa10∆): 2.46 ± 0.053
protein stability index (pdr5∆): 2.54 ± 0.065
protein stability index (san1∆): 2.95 ± 0.065
protein stability index (ubr1∆): 3.02 ± 0.051

KTERVEDQKVVDKALLA [RPL6B]
protein stability index (doa10∆): 1.52 ± 0.17
protein stability index (pdr5∆): 1.43 ± 0.089
protein stability index (san1∆): 1.38 ± 0.15
protein stability index (ubr1∆): 1.19 ± 0.13

KTFCEDPFSDVDDDQDY [GRR1]
protein stability index (doa10∆): 3.46 ± 0.17
protein stability index (pdr5∆): 3.31 ± 0.099
protein stability index (san1∆): 3.32 ± 0.048
protein stability index (ubr1∆): 3.46 ± 0.1

KTFDYVSDHLDAIYREL [SMC1]
protein stability index (doa10∆): 3.31 ± 0.096
protein stability index (pdr5∆): 3.34 ± 0.12
protein stability index (san1∆): 3.37 ± 0.074
protein stability index (ubr1∆): 3.12 ± 0.1

KTKKLNLSAFKIVYIAP [BRR2]
protein stability index (doa10∆): 2.13 ± 0.056
protein stability index (pdr5∆): 2.1 ± 0.052
protein stability index (san1∆): 2.19 ± 0.069
protein stability index (ubr1∆): 2.27 ± 0.052

KTLEKLESTIAETQGSK [IRR1]
protein stability index (san1∆): 1.39 ± 0.27

KTLKLARAPKYASKAVP [RPL25]
protein stability index (doa10∆): 2.29 ± 0.06
protein stability index (pdr5∆): 2.31 ± 0.056
protein stability index (san1∆): 2.53 ± 0.067
protein stability index (ubr1∆): 2.19 ± 0.035

KTLSLKSMASAFGVSVA [RPN7]
protein stability index (ubr1∆): 1.21 ± 0.13

KTNKISILKRHSFAVLL [NUT1]
protein stability index (doa10∆): 2.03 ± 0.11
protein stability index (pdr5∆): 2.4 ± 0.099
protein stability index (san1∆): 2.19 ± 0.12
protein stability index (ubr1∆): 1.99 ± 0.075

KTSEKSENHTESDAPPK [YOR098C/NUP1]
protein stability index (doa10∆): 2.52 ± 0.13
protein stability index (pdr5∆): 2.75 ± 0.13
protein stability index (san1∆): 2.53 ± 0.15
protein stability index (ubr1∆): 2.28 ± 0.21

KTSSGSYNYVENGIEVE [ITC1]
protein stability index (doa10∆): 3.31 ± 0.18
protein stability index (pdr5∆): 3.2 ± 0.2
protein stability index (san1∆): 2.95 ± 0.12
protein stability index (ubr1∆): 3.31 ± 0.17

KTTYYYYNEEGIHILLY [RPC82]
protein stability index (doa10∆): 1.9 ± 0.12
protein stability index (ubr1∆): 2.75 ± 0.05

KVAKKRLGSFTRAKAKV [RPL36A]
protein stability index (pdr5∆): 2.64 ± 0.21
protein stability index (san1∆): 3.1 ± 0.16
protein stability index (ubr1∆): 2.86 ± 0.29

KVATEKDFLKAVDKVIS [RPT1]
protein stability index (doa10∆): 3.23 ± 0.074
protein stability index (pdr5∆): 3.26 ± 0.094
protein stability index (san1∆): 3.05 ± 0.11
protein stability index (ubr1∆): 3.26 ± 0.053

KVDIPLEVVQYIEDGRN [NUT2]
protein stability index (doa10∆): 2.46 ± 0.066
protein stability index (pdr5∆): 1.59 ± 0.065
protein stability index (san1∆): 1.34 ± 0.094
protein stability index (ubr1∆): 1.59 ± 0.046

KVEKVVKCKMSALQQIM [SNF2]
protein stability index (doa10∆): 2.86 ± 0.12
protein stability index (pdr5∆): 3.05 ± 0.24
protein stability index (san1∆): 2.95 ± 0.14
protein stability index (ubr1∆): 3.13 ± 0.09

KVENLDYMYENGKLTSA [YML031W/NDC1]
protein stability index (doa10∆): 3.59 ± 0.25
protein stability index (pdr5∆): 3.3 ± 0.12
protein stability index (san1∆): 3.04 ± 0.12

KVIDLDTKLKAHELQSE [YIL149C/MLP2]
protein stability index (doa10∆): 2.55 ± 0.055
protein stability index (pdr5∆): 2.73 ± 0.053
protein stability index (san1∆): 2.58 ± 0.059
protein stability index (ubr1∆): 2.69 ± 0.042

KVIPYSTFRLNLSVTSP [RPO21]
protein stability index (doa10∆): 1.67 ± 0.065
protein stability index (pdr5∆): 1.53 ± 0.075
protein stability index (san1∆): 1.14 ± 0.24
protein stability index (ubr1∆): 1.97 ± 0.13

KVKNFGVWVRYDSRSGT [RPL20A]
protein stability index (pdr5∆): 2.74 ± 0.1
protein stability index (ubr1∆): 2.55 ± 0.24

KVMNNSFKLCTLLIAIR [YML103C/NUP188]
protein stability index (doa10∆): 1.47 ± 0.063
protein stability index (pdr5∆): 1.69 ± 0.087
protein stability index (san1∆): 1.96 ± 0.15
protein stability index (ubr1∆): 1.63 ± 0.09

KVNSRDDSFFNETNDKK [PRP28]
protein stability index (doa10∆): 2.82 ± 0.12
protein stability index (pdr5∆): 3.1 ± 0.11
protein stability index (san1∆): 3.04 ± 0.13
protein stability index (ubr1∆): 2.94 ± 0.12

KVPIGLILQRLKDLNLT [RGR1]
protein stability index (doa10∆): 2.48 ± 0.1
protein stability index (pdr5∆): 2.57 ± 0.09
protein stability index (san1∆): 2.98 ± 0.074
protein stability index (ubr1∆): 2.63 ± 0.053

KVSPEELPLVITMPATN [ARP7]
protein stability index (doa10∆): 2.64 ± 0.053
protein stability index (pdr5∆): 2.68 ± 0.065
protein stability index (san1∆): 2.57 ± 0.053
protein stability index (ubr1∆): 2.57 ± 0.042

KVTCSSNSSSSPPIIDL [MED1]
protein stability index (doa10∆): 2.53 ± 0.044
protein stability index (pdr5∆): 2.76 ± 0.044
protein stability index (san1∆): 2.87 ± 0.032
protein stability index (ubr1∆): 2.74 ± 0.033

KVVLKALFLSKINRPPV [RPL18A]
protein stability index (doa10∆): 2.28 ± 0.12
protein stability index (pdr5∆): 1.53 ± 0.067
protein stability index (san1∆): 1.41 ± 0.16
protein stability index (ubr1∆): 1.46 ± 0.083

KWGRNQPVNINLDSSIT [YMR129W/POM152]
protein stability index (doa10∆): 2.54 ± 0.094
protein stability index (pdr5∆): 2.7 ± 0.076
protein stability index (san1∆): 2.71 ± 0.099
protein stability index (ubr1∆): 2.52 ± 0.07

KYFTESDIPVSENVFEG [SSN3]
protein stability index (doa10∆): 3.06 ± 0.11
protein stability index (pdr5∆): 3.25 ± 0.098
protein stability index (san1∆): 3.1 ± 0.094
protein stability index (ubr1∆): 3.06 ± 0.073

KYHKEQFIKSNFEKILL [SRB8]
protein stability index (doa10∆): 2.21 ± 0.085
protein stability index (pdr5∆): 2.32 ± 0.047
protein stability index (san1∆): 1.95 ± 0.075
protein stability index (ubr1∆): 2.37 ± 0.057

KYPLGHFVRDLGTIESA [DIS3]
protein stability index (doa10∆): 2.56 ± 0.097
protein stability index (pdr5∆): 2.43 ± 0.1
protein stability index (san1∆): 2.85 ± 0.15
protein stability index (ubr1∆): 2.58 ± 0.19

KYVLITGAGKGSIGAEV [FAS2]
protein stability index (doa10∆): 3.22 ± 0.24
protein stability index (pdr5∆): 3.27 ± 0.12
protein stability index (san1∆): 3.63 ± 0.099
protein stability index (ubr1∆): 3.05 ± 0.093

LAFNYITYDKQEPSASQ [SRP68]
protein stability index (doa10∆): 3.19 ± 0.048
protein stability index (pdr5∆): 3.15 ± 0.056
protein stability index (san1∆): 2.97 ± 0.056
protein stability index (ubr1∆): 2.93 ± 0.037

LAGVLYESRNVAKRRFE [RRP6]
protein stability index (doa10∆): 2.76 ± 0.066
protein stability index (pdr5∆): 3.12 ± 0.061
protein stability index (san1∆): 2.93 ± 0.077
protein stability index (ubr1∆): 3.12 ± 0.047

LAKKTHKQELQDLILDL [SMC4]
protein stability index (doa10∆): 3.07 ± 0.083
protein stability index (pdr5∆): 3.25 ± 0.088
protein stability index (san1∆): 3.14 ± 0.055
protein stability index (ubr1∆): 3.05 ± 0.067

LAKLVSTIDANFADKYD [RPL8A]
protein stability index (doa10∆): 2.41 ± 0.14
protein stability index (pdr5∆): 2.8 ± 0.14
protein stability index (san1∆): 2.8 ± 0.12
protein stability index (ubr1∆): 1.89 ± 0.069

LALAETLKLRARQRGKL [SRP68]
protein stability index (pdr5∆): 2.64 ± 0.21
protein stability index (san1∆): 2.25 ± 0.26
protein stability index (ubr1∆): 2.97 ± 0.098

LALKLELLDFLTSNLSN [YJL039C/NUP192]
protein stability index (doa10∆): 2.55 ± 0.053
protein stability index (pdr5∆): 2.26 ± 0.043
protein stability index (san1∆): 2.45 ± 0.049
protein stability index (ubr1∆): 2.65 ± 0.043

LALSGTSASNTSMNGVH [SNF5]
protein stability index (doa10∆): 2.48 ± 0.073
protein stability index (pdr5∆): 2.73 ± 0.16
protein stability index (ubr1∆): 3.05 ± 0.14

LAREVPQQSGKKLLINK [DPB4]
protein stability index (doa10∆): 1.43 ± 0.092
protein stability index (pdr5∆): 2.06 ± 0.063
protein stability index (san1∆): 1.86 ± 0.1
protein stability index (ubr1∆): 1.58 ± 0.067

LARGHRVEKIPEIPLVV [RPL4A]
protein stability index (pdr5∆): 3.42 ± 0.25

LARSGLRIGRIEDVTPV [RPS14B]
protein stability index (doa10∆): 1.63 ± 0.046
protein stability index (pdr5∆): 1.95 ± 0.052
protein stability index (san1∆): 2.25 ± 0.062
protein stability index (ubr1∆): 2.07 ± 0.043

LASKAARKSAPSTGGVK [HHT1]
protein stability index (doa10∆): 2.89 ± 0.15
protein stability index (pdr5∆): 3.12 ± 0.12
protein stability index (san1∆): 2.99 ± 0.076
protein stability index (ubr1∆): 3.05 ± 0.1

LATLHYQKKQYKDSLAL [RPN6]
protein stability index (doa10∆): 1.91 ± 0.28
protein stability index (pdr5∆): 1.47 ± 0.17
protein stability index (san1∆): 2.62 ± 0.19
protein stability index (ubr1∆): 2.14 ± 0.23

LCDIDEVSDFDEMYELT [DIB1]
protein stability index (doa10∆): 2.43 ± 0.19
protein stability index (pdr5∆): 3.08 ± 0.1
protein stability index (san1∆): 2.65 ± 0.12
protein stability index (ubr1∆): 1.9 ± 0.16

LCMDSSYIGTIIVKDKS [POP1]
protein stability index (doa10∆): 1.2 ± 0.091
protein stability index (pdr5∆): 1.49 ± 0.048
protein stability index (san1∆): 1.13 ± 0.11
protein stability index (ubr1∆): 1.28 ± 0.089

LDEDDVNADDDDFMHSE [RPB4]
protein stability index (doa10∆): 2.94 ± 0.096
protein stability index (pdr5∆): 2.82 ± 0.088
protein stability index (san1∆): 2.53 ± 0.12
protein stability index (ubr1∆): 3.07 ± 0.09

LDENLNSLSSNLSSLIV [YJL041W/NSP1]
protein stability index (doa10∆): 2.41 ± 0.04
protein stability index (pdr5∆): 2.54 ± 0.061
protein stability index (san1∆): 2.66 ± 0.065
protein stability index (ubr1∆): 2.6 ± 0.044

LDIEKEAPAGNIDTITD [MCD1]
protein stability index (doa10∆): 2.84 ± 0.081
protein stability index (pdr5∆): 3.03 ± 0.066
protein stability index (san1∆): 3.07 ± 0.086
protein stability index (ubr1∆): 3.08 ± 0.052

LDIINPGSVEEVDKSKL [YDL116W/NUP84]
protein stability index (doa10∆): 2.94 ± 0.1
protein stability index (pdr5∆): 3.44 ± 0.11
protein stability index (san1∆): 3.24 ± 0.13
protein stability index (ubr1∆): 3.53 ± 0.087

LDLANSGDESNVISSKD [YDL116W/NUP84]
protein stability index (doa10∆): 3.31 ± 0.09
protein stability index (pdr5∆): 3.31 ± 0.067
protein stability index (san1∆): 3.25 ± 0.051
protein stability index (ubr1∆): 3.26 ± 0.063
